From article PMC3253920 (Biochimica et Biophysica Acta, 2011) come the findings set out here.

The data set concerns the molecule itself. Put plainly: crystal structure.

B1: native rat liver glycine N-methyltransferase (enzyme, UniProt P13255 2-293, looked up)
chain: VDSVYRTRSLGVAAEGIPDQYADGEAARVWQLYIGDTRSRTAEYKAWLLGLLRQHGCHRVLDVACGTGVDSIMLVEEGFSVTSVDASDKMLKYALKERWNRRKEPAFDKWVIEEANWLTLDKDVPAGDGFDAVICLGNSFAHLPDSKGDQSEHRLALKNIASMVRPGGLLVIDHRNYDYILSTGCAPPGKNIYYKSDLTKDITTSVLTVNNKAHMVTLDYTVQVPGAGRDGAPGFSKFRLSYYPHCLASFTELVQEAFGGRCQHSVLGDFKPYRPGQAYVPCYFIHVLKKTG
modifications: acetylated N-terminal valine (Val1)
Regarding B1, the stoichiometry N (in general, the number of molecules, sites or subunits per partner or assembly) worked out at 4.
